Data reported in the Human Domainome abundance scans (Beltran et al. 2025).

B1: E3 ubiquitin-protein ligase NEDD4-like, residues 539 to 589; numbered along this chain, Q96PU5 (parent)
chain: KTSLNPNDLGPLPPGWEERIHLDGRTFYIDHNSKITQWEDPRLQNPAITGP

Variants of: B1
Test: abundance fitness (aPCA) (normalised: wild type 0, dead -1); higher = more abundant; growth selection in yeast, the domain comes from the species named
Details: Homo sapiens

Abundance fitness: each site, then its substitutions
I29: A -0.299 | Q -0.176 | K -0.027 | W -0.332 | L -0.175 | H -0.782
T36: L -0.558 | R -0.291 | Q -0.336 | P -0.608
D8: M -0.307 | K -0.022 | N 0.013 | S -0.147
Q44: I -0.016 | D 0.028 | T -0.078 | G -0.022 | W -0.27 | K 0.11 | E 0.074 | M -0.049
L22: M 0.013 | K 0.206 | A 0.156 | Q 0.152 | D 0.048 | F -0.23
H21: V -0.296 | I -0.478 | Y -0.151 | S 0.221 | K -0.178 | P -0.693 | L -0.289
A47: N 0.011 | L -0.083 | H 0.235 | P 0.008 | D 0.218 | I -0.167 | T -0.056
L9: S -0.237 | V -0.347
E18: L -0.802 | K -0.274 | V -0.322 | W -0.962 | M -0.444 | Q 0
K1: H -0.704 | T -0.328 | V -0.885 | D -0.201 | E -0.473 | A -0.774
I20: Y -0.164 | H -0.125 | E 0.022 | C 0.192 | W -0.228 | V 0.093
N5: E 0.019 | R -0.293 | W -0.538 | T -0.203
G50: H -0.555 | M -0.284 | C -0.329 | A 0.012 | S -0.153 | D 0.029
N45: S -0.011 | V -0.106 | T -0.007 | C -0.103 | L -0.094 | G -0.045 | H -0.068
T49: Q -0.199 | S -0.077 | I -0.226 | M -0.091 | R -0.042 | E -0.144 | N -0.313
G10: D -0.24 | M -0.485
I48: L -0.123
P14: K -0.044 | M -0.256 | C -0.1 | G -0.205 | W -0.433 | V -0.122 | Y -0.066 | S -0.042 | Q -0.17
G15: Q -0.321 | K -0.447 | F -0.491 | S -0.394 | A -0.361 | C -0.442 | I -0.429 | Y -0.53 | L -0.622
H31: C -0.149 | Y -0.414 | R -0.156 | T 0.065 | E -0.243 | I -0.017 | F -0.479
S33: G -0.344 | D -0.267 | N -0.001 | C -0.153 | A -0.061 | Q -0.188 | R 0.056
I35: Q 0.029 | R 0.048 | G -0.301 | L -0.035 | S -0.079 | M -0.239 | A 0.008 | C 0.002 | D -0.128
W16: Q -0.388 | K -0.29 | D -0.353 | H -0.386
N32: W -0.395 | L -0.181 | F -0.39 | S -0.086 | E -0.03 | Y -0.24 | I 0.074
W38: P -0.223 | D 0.002 | H -0.121 | V -0.146 | I -0.162 | T 0.058 | G -0.249 | K -0.029 | F 0.066
E39: Q -0.362 | A -0.15 | V -0.233 | C -0.194 | H -0.153 | F -0.45 | D -0.077
D40: P -0.401 | G -0.731 | M -0.639 | L -0.654 | Q -0.878
R25: S -0.063 | L -0.598 | P -0.558 | F -0.568 | Y -0.569 | W -0.72 | H -0.382 | E -0.198
L43: I -0.256 | H -0.131 | Y -0.192 | V -0.088 | D -0.139 | N -0.183 | M -0.153
E17: M -0.821 | F -0.753 | Q -0.361 | N -0.61
N7: L -0.212 | I -0.169 | V -0.114 | F -0.11 | M -0.02 | T -0.007 | R -0.041 | G 0.005
P41: K -0.868 | V -0.848 | F -1.1 | D -0.98 | R -0.758
K34: Q 0.076 | P -0.857 | R -0.119 | V -0.58 | H -0.087 | W -0.547
P11: Y -0.601 | C -0.178 | A 0.022 | N -0.177 | E -0.044 | D -0.025 | R -0.168 | I -0.322 | G -0.19 | F -0.426
Y28: N -0.851 | T -0.626 | K -0.332 | I -0.273 | F -0.347
F27: Q 0.042 | V -0.188 | E 0.175 | D -0.27 | P -0.357
P6: F -0.123 | T 0.144 | G 0.027 | R 0.015 | D 0.159 | Y -0.105 | E 0.057
P46: D -0.028 | F -0.228 | N -0.263 | T -0.051 | I -0.171 | Q -0.27 | E -0.39 | K 0.028 | G 0.01 | Y -0.317
L4: P -0.281 | R -0.241 | C -0.252 | S -0.07 | H -0.242 | K 0.116 | T -0.303 | A -0.205 | V -0.139 | I -0.136
R42: G -0.656 | T -0.71 | W -1.18 | C -0.847 | E -0.752
R19: A -0.283 | I -0.181 | K -0.198 | Y -0.216 | N -0.368 | V -0.155 | T -0.342 | H -0.423 | G -0.175 | L -0.354 | Q -0.361 | E -0.192
S3: V -0.353 | E -0.363 | R -0.338
L12: D -0.736 | Y -0.788 | M -0.121 | I -0.488 | N -0.534 | E -0.563 | A -0.627 | T -0.427
Q37: A -0.443 | Y -0.33 | K -0.357 | S -0.014 | N -0.511 | L -0.703 | C -0.207
P51: T 0.009 | S -0.336
T2: Y -0.001 | P -0.341 | I 0.067 | Q -0.024 | R -0.365 | L -0.158 | D 0.142 | C -0.181
D30: M -0.753 | E -0.24 | G -0.617 | L -0.591 | P -0.953 | C -0.166 | S -0.32 | Q -0.424
P13: Q -0.585 | F -0.616 | M -0.799 | H -1.04 | S -0.605 | N -0.437 | C -0.766 | A -0.495 | K -0.559
D23: H -0.593 | Q -0.252 | N -0.064 | R -0.645 | T -0.031 | K -0.333 | S -0.036 | F -1.12
T26: C -0.065 | N -0.187 | V -0.077 | S -0.113 | D -0.635
G24: F -1.35 | S -0.531 | Y -0.76 | A -0.608 | L -0.938 | V -1.03 | C -0.917 | M -1.08 | Q -0.705 | I -1.12 | P -1.14 | E -0.719
